We go through 56 molecules from US20070066800A1, “Apo2l(trail) receptor binding peptides and uses thereof” (priority 2003, published 2007).

The target in test [1] is T1, Hu DR5 ECD (SEQ ID NO: 105) (Homo sapiens, UniProt O14763, A67V/E190F/V191A).
T1 construct: Human DR5-ECD long form polypeptide
The test is described as follows: Phage competition Ic50 ELISA (phagemid binding assay), competitor DR5 ECD. To be noted: Positive clones, competitor DR5 ECD (Comp/DR5 EcD). The procedure:
The Apo-2L receptor binding peptides disclosed herein were identified from the bacteriophage peptide library constructs shown in Tables I and II using the following phagemid binding assay.
1. Coat microtiter plate wells with 80 ul of 1 ug/ml Apo-2L receptor DR5 ECD (SEQ ID NO: 105) (in 50 mM sodium carbonate pH 9.6) at 4° C. overnight.
2. Remove coat and block with 200 ul PBS/0.1% BSA. Incubate 1 hour at room temperature.
3. Prepare competing receptor solutions (100 ul/sample).
Dispense SOul binding buffer to row H through B in a new non-sticky 96-well plate.
Dispense 75 ul competing receptor solution to row A.
Make 3-fold serial dilutions by transferring 25 ul solution along columns except for row H (use fresh tip set for each transfer).
4. Prepare appropriate subsaturating phage dilution (predetermined from phage dilution series).
Transfer 50 ul of phage diluent to each microtiter well of the non-sticky plate. Start at row H then G,F,E,D,C,B,A respectively.
Incubate at R.T. for 2 hours.
5. Shake block off plate which has been coated with DR5 ECD (SEQ ID NO: 105) and rinse 10 times with PBS+0.05% tween 20.
6. Transfer 80 ul the mixture of competing receptor and phage from the non-sticky plate to DR5 ECD coated plate and incubate 20 minutes at room temperature.
7. Make a 1:5000 dilution of HRP conjugate anti-M13 monoclonal Ab (Amersham Pharmacia Biotech) into binding buffer.
Rinse plate 10 times with PBS/tween20 (be thorough here to remove vast excess of non displaying phage).
Add 80 ul of Ab diluent to row H through A.
8. Mix TMB peroxidase substrate and peroxidase solution B at equal volume.
Rinse plate 10 times with PBS/tween20.
Add 80 ul of substrate to row H through A.
Incubate as required to develop and stop with 80 ul 2.5M H2SO4.
A number of bacteriophage clones expressing peptides of interest were generated using the above methods and then purified using limiting dilution. In order to further characterize specific clones of interest (e.g. to determine Ic 50 values), phage clones were grown and then purified using a polyethylene glycol based method as described in Sidhu et al., Methods Enzymol. 328, 333-363 (2000). Alternative methods for generating and purifying bacteriophages are also known in the art. See, e.g. Current Protocols In Molecular Biology, Volume 1, Units 1, 5 and 6, Frederick M. Ausubel et al. eds., 1995.
Phage clones identified using the above methods were grown and then purified using the following polyethylene glycol based method. Briefly, a bacterial culture infected with a phage clone of interest is grown under conditions favorable to phage growth and then centrifuged for 10 min at 2° C. and 16,000 g. The supernatant is then transferred to a fresh centrifuge tube and a 1/5 volume of PEG-NaCl (PEG 8000 (200 g/L), NaCl (146 g/L), autoclaved) is added. The mixture is then incubated for 5 minutes at room temperature. The mixture is then centrifuged as above and the supernatant decanted. The supernatant is then respun briefly and the remaining supernatant removed. The phage pellet is then resuspended in 1/20 volume of PBS (or other analogous buffer). Insoluble matter is then pelleted by centrifugation. The supernatant containing the purified phage is saved and used in assays such as Ic 50 and Ec 50 assays that are described in the following examples.
In the Tables provided herein, “Ic 50” refers to the measure of the concentration of peptide needed to inhibit 50% of Apo-2L (e.g. amino acids 114 to 281 of SEQ ID NO: 1) binding to an Apo-2L receptor molecule (e.g. DR4-IgG (SEQ ID NO: 108) or DR5 ECD (SEQ ID NO: 105) etc.). The peptides are classified such that class 1-class 4 represent a, b, c, and d respectively.
Background: An ELISA detects its analyte on a solid surface through an enzyme-linked reagent.

The next test relates to Apo-2L.0 and DR5. The test can be described thus: IC50. An excerpt: Table printed on a drawing sheet, FIG._4C
Title: Step 3: Truncation Scan
The patent's description of the figure: FIGS. 4A-4D provide illustrations of the protocols used to modify Apo-2L receptor binding peptides.
Where the first naming reader finds the target: passage: inhibit the interaction between Apo-2L.0 (amino acids 114 to 281 of SEQ ID NO: 1) and DR5 (SEQ ID NOs: 105 and 109)

Test [2] deals with Human DR5-ECD long form polypeptide (human). The test can be described thus: phage competition ELISA (Comp/DR5 ECD).
For test [3] the target is unchanged. The test is described as follows: phage competition ELISA, cross-reactivity.

Where only a bound is given, the exact number is not on record here.

In the case of “2Hd7-20 (CVAMTSCDKLRLCQLL) [Peptide 2Hd7-20]”, in test [1], the IC50 (in general, the concentration at which inhibition is half-maximal) turned out to be 29 nM.

G1A (AEVCLTSCSRLR) [Peptide G1A] had an IC50 in test [1] of 9.8 nM.

“3H858-2 (IRVGEVCMTTCEKLM) [Peptide 3H858-2]” returned an IC50 in test [1] of 66.7 nM.

As for “3H857-13 (VEAGEVCLTLCEKLM) [Peptide 3H857-13]”, the 50% inhibitory concentration (IC50) in test [1] is 167 nM.

The molecule EVCMTSCEKLMSAL [C1-14] registered an IC50 in the test with Apo-2L.0 and DR5 of 39 nM.

LB882 (GEVCLTSCERLR) displayed an IC50 in test [1] of 14.9 nM.

“2Hd7-2 (CVAMTSCEKLRSCLLL) [Peptide 2Hd7-2]” came in with an IC50 in test [1] of 19.6 nM.

“Hd5-10: first generation (G1) peptide lead, SEQ ID NO: 14 (NVDQECMTTCTRLRECQLLL)” had an IC50 in test [1] of 78.4 nM.

As to E2A (GAVCLTSCSRLR) [Peptide E2A], the half-maximal inhibitory concentration (IC50) in test [1] was 49 nM.

LB939 (GEVCLTSCSRVR): the IC50 in test [1] is > 100 nM.

For LB933 (GEVCLTTCSRIR), the half-inhibitory concentration (IC50) in test [1] worked out at 23.8 nM.

Consider LB932 (GEVCLSSCSRLR), for which, in test [1], the half-inhibitory concentration (IC50) was > 100 nM.

Turning to “2Hd7-1 (CVAMTTCSKLRQCLSA) [Peptide 2Hd7-1]”, in test [1], the concentration for half-maximal inhibition (IC50) stood at 4.9 nM.

Turning to EVCMTSCEKLMSALSL, in the test on Apo-2L.0 and DR5, it took 79 nM to reach half-maximal inhibition (IC50).

As for LB936 (GEVCLTSCERIR), the IC50 in test [1] is 9 nM.

Molecule “2H9-15 (EVCMTSCDRLKQAFLL) [Peptide 2H9-15]” yielded a half-inhibitory concentration (IC50) in test [1] of 78.4 nM.

EVCMTSCEKLM [C1-11*] yielded an IC50 with Apo-2L.0 and DR5 of 2940 nM.

In the test with Apo-2L.0 and DR5, EVCMTSCEKLMSA [C1-13] came in with a 50% inhibitory concentration (IC50) of 49 nM.

With LB931 (GEVCMTSCSRLR), the IC50 in test [1] was > 100 nM.

In test [1], “930-S8-4 (AVGEVCLTECSRLIQR) [Peptide 930-S8-4]” yielded a half-maximal inhibitory concentration (IC50) of 11.2 nM.

As to “2Hd7-3 (CVAMTTCDKLRECMAI) [Peptide 2Hd7-3]”, the IC50 in test [1] stood at 49 nM.

Consider “871-31-S3 (ESRGEVCLTSCERLR) [Peptide 871-31-S3]”, for which the IC50 in test [1] was 14.9 nM.

Regarding LB940 (GEVCLTSCSRLK), in test [1], the half-maximal inhibitory concentration (IC50) was > 100 nM.

Molecule GEVCLTSCDRLR (phage-displayed) [LB937] had an IC50 in test [2] of 11.9 nM.

Consider GEACLTSCSRLR (phage-displayed) [V3A], for which, in test [2], the half-maximal inhibitory concentration (IC50) was 9.8 nM.

Consider GEVCLTECSRLT (phage-displayed) [LB960], for which the half-maximal inhibitory concentration (IC50) in test [2] and in test [3] was 17.6 nM in each case.

As for CVAMTTCDKLRECMAI (phage-displayed) [2Hd7-3], the concentration for half-maximal inhibition (IC50) in test [2] came to 49 nM.

On to GEVCLTTCSRIR (phage-displayed) [LB933], for which, in test [2], the half-maximal inhibitory concentration (IC50) worked out at 23.8 nM.

In test [2], EVCMTSCEKLM (phage-displayed) [LB848] displayed an IC50 of 29400 nM.

For GEVCLTSCSALR (phage-displayed) [R10A], in test [2], the IC50 came to 9.8 nM.

As to GRVCLTLCSKLR (phage-displayed) [LB954], the IC50 in test [2] and in test [3] was 23.5 nM throughout.

For GEVCLTLCSKLT (displayed on phage) [LB956], the IC50 in test [2] and in test [3] was 35.3 nM each time.

The molecule QEVCMTSCDKLMKANWMAAM (phage-displayed) [LB867] registered an IC50 in test [2] of 29.4 nM.

CVAMTSCEKLRSCLLL (displayed on phage) [2Hd7-2]: the IC50 in test [2] was 19.6 nM.

For the molecule GEVCLTECSKLT (phage-displayed) [LB963], the half-inhibitory concentration (IC50) in test [2] and in test [3] was 11.8 nM each time.

As to GEVCLTLCSRLT (displayed on phage) [LB953], the half-maximal inhibitory concentration (IC50) in test [2] and in test [3] was 23.5 nM throughout.

Molecule FEQGEVCMTLCEKLM (phage-displayed) [3H858-1] gave an IC50 in test [2] of 83.3 nM.

On to EVCMTSCDRLKQAFLL (phage-displayed) [2H9-15], for which the 50% inhibitory concentration (IC50) in test [2] was found to be 78.4 nM.

For GEVCLTSCERIR (displayed on phage) [LB936], the IC50 in test [2] is 9 nM.

For GEVCLTSCARLR (phage-displayed) [S9A], the IC50 in test [2] is 12.7 nM.

Regarding GEVCLTSCERLR (phage-displayed) [LB882], the half-inhibitory concentration (IC50) in test [2] was 14.9 nM.

Take GEVCLTLCSRLR (phage-displayed) [LB934]: the IC50 in test [2] stood at 3 nM.

CVAMTTCSKLRQCLSA (phage-displayed) [2Hd7-1] registered an IC50 in test [2] of 4.9 nM.

The molecule EVCMTSCEKLMSAL (phage-displayed) [LB845] came in with a half-inhibitory concentration (IC50) in test [2] of 39.2 nM.

In test [2], GEVCLTSCSRIR (displayed on phage) [LB938] had a 50% inhibitory concentration (IC50) of 11.9 nM.

GEVCLTECSKLR (displayed on phage) [LB959]: the IC50 in test [2] and in test [3] was 23.5 nM throughout.

Molecule GEVCLTMCSRLR (displayed on phage) [LB935] showed a half-inhibitory concentration (IC50) in test [2] of 4.5 nM.

Molecule CVAMTTCEKLRLCQSL (phage-displayed) [2Hd7-7] showed an IC50 in test [2] of 6.9 nM.

In test [2], EVCMTSCEKLMSA (displayed on phage) [LB846] yielded a half-maximal inhibitory concentration (IC50) of 49 nM.

Take RLPGEVCLTSCERLL (phage-displayed) [871-4-S3]: the IC50 in test [2] stood at 149 nM.

CVAMTSCDKLRLCQLL (phage-displayed) [2Hd7-20]: in test [2], the IC50 was determined as 29 nM.

Take GEVCLTLCSKLR (displayed on phage) [LB952]: the IC50 in test [2] and in test [3] was 424 nM throughout.

ESRGEVCLTSCERLR (phage-displayed) [871-31-S3]: the half-maximal inhibitory concentration (IC50) in test [2] stood at 14.9 nM.

In the case of VEAGEVCLTLCEKLM (phage-displayed) [3H857-13], the concentration for half-maximal inhibition (IC50) in test [2] is 167 nM.

In turn, EVCMTSCEKLMS (displayed on phage) [LB847] yielded an IC50 in test [2] of 735 nM.

EVCMTSCEKLMSALSL (phage-displayed) [2H9-13] gave an IC50 in test [2] of 79.1 nM.
